Assay results taken from patent publication US20250277199, “NOVEL CRISPR-CAS NUCLEASES FROM METAGENOMES” (Brain Biotech AG, published 2025).

Biological target: T1, BMC03 (uncultured bacterium (metagenome))
T1 chain: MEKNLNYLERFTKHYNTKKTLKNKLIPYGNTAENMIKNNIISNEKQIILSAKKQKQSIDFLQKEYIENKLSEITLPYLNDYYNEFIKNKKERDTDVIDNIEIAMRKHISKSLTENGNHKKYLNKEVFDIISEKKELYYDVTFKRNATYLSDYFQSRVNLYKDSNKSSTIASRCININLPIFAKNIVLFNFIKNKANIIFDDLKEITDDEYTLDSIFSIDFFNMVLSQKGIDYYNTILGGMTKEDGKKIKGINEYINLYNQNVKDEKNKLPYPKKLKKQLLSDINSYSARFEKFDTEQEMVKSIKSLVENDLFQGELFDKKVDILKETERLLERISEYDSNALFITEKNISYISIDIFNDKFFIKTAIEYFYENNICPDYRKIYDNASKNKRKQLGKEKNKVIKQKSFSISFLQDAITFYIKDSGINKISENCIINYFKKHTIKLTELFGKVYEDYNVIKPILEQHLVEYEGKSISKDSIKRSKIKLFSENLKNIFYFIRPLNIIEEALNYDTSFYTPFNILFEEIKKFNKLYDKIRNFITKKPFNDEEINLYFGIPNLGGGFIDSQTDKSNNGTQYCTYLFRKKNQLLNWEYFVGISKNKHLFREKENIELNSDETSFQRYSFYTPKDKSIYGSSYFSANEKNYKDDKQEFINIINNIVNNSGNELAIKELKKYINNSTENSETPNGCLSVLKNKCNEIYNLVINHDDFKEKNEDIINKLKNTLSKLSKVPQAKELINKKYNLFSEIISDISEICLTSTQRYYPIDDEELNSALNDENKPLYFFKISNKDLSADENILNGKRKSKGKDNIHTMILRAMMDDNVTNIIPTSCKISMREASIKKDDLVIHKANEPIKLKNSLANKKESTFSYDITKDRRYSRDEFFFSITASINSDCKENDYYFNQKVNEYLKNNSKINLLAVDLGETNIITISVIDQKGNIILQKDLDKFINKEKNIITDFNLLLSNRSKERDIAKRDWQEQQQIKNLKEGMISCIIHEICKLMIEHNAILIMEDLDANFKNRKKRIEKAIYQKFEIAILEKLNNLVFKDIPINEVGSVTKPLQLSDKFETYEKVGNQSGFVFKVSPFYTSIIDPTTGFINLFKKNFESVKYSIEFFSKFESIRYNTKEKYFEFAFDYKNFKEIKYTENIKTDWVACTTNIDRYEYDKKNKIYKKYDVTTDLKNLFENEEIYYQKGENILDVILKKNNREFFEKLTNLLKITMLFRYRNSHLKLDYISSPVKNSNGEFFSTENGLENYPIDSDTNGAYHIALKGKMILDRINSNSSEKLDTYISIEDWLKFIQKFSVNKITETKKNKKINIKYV
Test: cell_activity; PAM not stated; E. coli depletion, 30 C
How it was run: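 E. coli carrying arabinose-induced (0.2%) BMC nuclease, grown at 30° C., made electrocompetent and electroporated with 50-100 ng plasmid carrying gRNA against malQ. Transformants plated on selective M9-glucose agar with kanamycin/ampicillin (± nourseothricin), and growth scored after 48 h at 30° C.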

B1: malQ gRNA (BMC stem-loop + 24 nt spacer) ; malQ protospacer (ssRNA ; dsDNA)
RNA: GAUUUCUACUAUUGUAGAUGUGGCGGUACGUUGAUGCAUCGCG
DNA 1: GTGGCGGTACGTTGATGCATCGCG
DNA 2: CGCGATGCATCAACGTACCGCCAC
  activity: > 99.9 % colony reduction
